Publication PMC9245003

Experiments:
Assay in all cases: SEC-MALS
[1] = molecular target: gH/gL 7-mer nanoparticle (gH-C153T-IMX313 / gL) (Epstein-Barr virus | Gallus gallus) (UniProt P03231)
[2] = molecular target: gH/gL 60-mer nanoparticle (gH-C153T-I3 / gL) (Epstein-Barr virus) (UniProt P03231)
[3] = molecular target: gH/gL 24-mer nanoparticle (gH-ferritin / gL) (Epstein-Barr virus | Helicobacter pylori) (UniProt P03231)

gH/gL 7-mer nanoparticle (gH-C153T-IMX313 / gL) (from UniProt P03231;P03212) (complex)
stoichiometry N [1]: 7

gH/gL 60-mer nanoparticle (gH-C153T-I3 / gL) (from UniProt P03231;P03212) (complex)
stoichiometry N [2]: 60

gH/gL 24-mer nanoparticle (gH-ferritin / gL) (from UniProt P03231;P03212) (complex)
stoichiometry N [3]: 24
